The values that follow come from patent US20020164657A1 (published 2002).

This assay deals with T1, Aβ 1-42.
T1 construct: Obtained from Bachem, dissolved in 50% DMSO and used as the aggregated (insoluble) form; also called aggregated Aβ 1-42; beta-amyloid peptide 1-42
Put plainly: co-sedimentation with Aβ 1-42, SDS-PAGE densitometry.

T1 sequence (peptide, as listed by the source): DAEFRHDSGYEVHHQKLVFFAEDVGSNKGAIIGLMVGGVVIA
Method: Samples were centrifuged at 12,000×g in a micro centrifuge for 5 min. The supernatants were removed, and the pellets washed once with 40 mM Tris, pH 7.5, 10 mM MgCI₂, 1 mM DTT and centrifuged again. The pellets were resuspended in 100 μl buffer, electrophoresed on 12% SDS-PAGE next to the corresponding supernatant, and stained with Coomassie Blue R-250.

B1: N-terminal tau (M1-238S) (other)
chain: MAEPRQEFEVMEDHAGTYGLGDRKDQGGYTMHQDQEGDTDAGLKAEEAGIGDTPSLEDEAAGHVTQARMVSKSKDGTGSDDKKAKGADGKTKIATPRGAAPPGQKGQANATRIPAKTPPAPKTPPSSGEPPKSGDRSGYSSPGSPGTPGSRSRTPSLPTPPTREPKKVAVVRTPPKSPSS
notes: also called N-terminal tau domain (IM-238S)
In the case of B1, the binding result was “no binding”.
